For assay [1], the target named is T1, Cynomolgus monkey IL-17C (cynomolgus monkey, UniProt Q9P0M4 19-197 (human entry), limits assumed, biotinylated in the receptor inhibition assay (ECL biotinylation module)).
T1 construct: Produced in-house; also called cynomolgus IL-17C
T1 chain: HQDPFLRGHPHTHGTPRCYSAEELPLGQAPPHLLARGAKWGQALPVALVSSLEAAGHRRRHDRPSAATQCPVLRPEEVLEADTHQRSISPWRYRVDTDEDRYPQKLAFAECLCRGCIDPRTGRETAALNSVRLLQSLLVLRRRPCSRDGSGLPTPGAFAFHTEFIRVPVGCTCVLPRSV
Nature of the assay: SET (solution equilibrium titration, ECL based), apparent affinity, bivalent IgG. The source says:
(§1) Solution equilibrium titration (SET) was basically performed as described in the literature (Friquet et al., (1985) J. Immunol. Meth. 77: 305-19). In order to improve the sensitivity and accuracy of the SET method, it was transferred from classical ELISA to ECL based technology (Haenel et al. (2005) Anal Biochem. 339.1: 182-84).

The target of assay [2] is T2, Human IL-17C (human, UniProt Q9P0M4 19-197, biotinylated in the receptor inhibition assay (ECL biotinylation module)).
T2 construct: Recombinant protein, purchased or made in-house (Novus #NBP1-42910 in the cell assays); also called hIL-17C; interleukin 17C
T2 sequence: T1 chain with Q2H, F5S, T12S, R17H, G56S, R59G, D62E, A67T, P119A, R166H
Described as above.
Text: as §1

Assay [3] concerns the target T3, Mouse IL-17C (mouse, UniProt Q8K4C5 17-194, biotinylated in the receptor inhibition assay (ECL biotinylation module)).
T3 construct: Recombinant protein (R&D Systems #2306-ml-025 in the cell assays); also called mIL-17C
T3 sequence: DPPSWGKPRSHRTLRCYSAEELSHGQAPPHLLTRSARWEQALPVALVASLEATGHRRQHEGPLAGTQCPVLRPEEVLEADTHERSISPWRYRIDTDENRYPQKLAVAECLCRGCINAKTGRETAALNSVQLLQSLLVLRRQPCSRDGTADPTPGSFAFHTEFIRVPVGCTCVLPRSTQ
The description is as above.
Text: as §1

The target of assay [4] is T3, Mouse IL-17C. Kind of assay: MSD receptor inhibition assay, IgG format: IgG pre-incubated with biotinylated mouse IL-17C, binding to coated mouse IL17RE/Fc. As for the experimental part:
(§2) Purified IL-17C specific Fabs or IgGs, respectively were tested for its capacity to inhibit the binding of IL-17C to its specific receptor IL-17RE. Therefore MA6000 384-well plates (Meso Scale Discovery, MSD) were coated with 30 μl of mouse IL17RE/Fc chimeric protein at 75 ng/ml in PBS at 4° C. overnight. The next day a serial antibody dilution (concentrations from 0.001 to 100 nM) were pre-incubated for 30 min at RT with an equal volume of biotinylated human/cynomolgus or mouse IL-17C to determine an IC₅₀ concentration for receptor binding inhibition. After blocking of plates for 1 h with 2.5% BSA in PBST, previously formed antibody-ligand complexes were added for 1 h to coated IL17RE/Fc and receptor binding was detected via Streptavidin-ECL using MSD Sector Imager.
(§3) Results are shown in rows 3 and 4 in Table 2 and Table 3 respectively.

The target of assay [5] is T1, Cynomolgus monkey IL-17C. Kind of assay: MSD receptor inhibition assay, IgG format: IgG pre-incubated with biotinylated cynomolgus IL-17C, binding to coated mouse IL17RE/Fc. As to the method: as §2, §3
Assay [6] addresses T2, Human IL-17C. Kind of assay: MSD receptor inhibition assay, IgG format: IgG pre-incubated with biotinylated human IL-17C, binding to coated mouse IL17RE/Fc. As to the method: as §2, §3
In assay [7] the target is T1, Cynomolgus monkey IL-17C. Nature of the assay: cell-based or functional assay.
Assay [8] concerns the target T2, Human IL-17C. Nature of the assay: cell-based or functional assay.
Assay [9] deals with T3, Mouse IL-17C. Nature of the assay: cell-based or functional assay.
Assay [10] has as its target T1, Cynomolgus monkey IL-17C. Nature of the assay: SET (solution equilibrium titration, ECL based), monovalent affinity, Fab.
Text: as §1

Assay [11] concerns the target T2, Human IL-17C. Described as above.
Text: as §1

Assay [12] concerns the target T3, Mouse IL-17C. Described as above.
Text: as §1

Assay [13] deals with T1, Cynomolgus monkey IL-17C. Nature of the assay: MSD receptor inhibition assay, Fab format: Fab pre-incubated with biotinylated cynomolgus IL-17C, binding to coated mouse IL17RE/Fc. As to the method: as §2, §3
Assay [14] deals with T2, Human IL-17C. Kind of assay: MSD receptor inhibition assay, Fab format: Fab pre-incubated with biotinylated human IL-17C, binding to coated mouse IL17RE/Fc. As for the experimental part:
as §2, §3

Assay [15] deals with T3, Mouse IL-17C. Kind of assay: MSD receptor inhibition assay, Fab format: Fab pre-incubated with biotinylated mouse IL-17C, binding to coated mouse IL17RE/Fc. As to the method: as §2
For assay [16], the target named is T1, Cynomolgus monkey IL-17C. Kind of assay: cell-based or functional assay.
The target in assay [17] is T2, Human IL-17C. Kind of assay: cell-based or functional assay. The source holds these as a separate data set.
Assay [18] deals with T3, Mouse IL-17C. Kind of assay: cell-based or functional assay. This is another data set of the same source.
Assay [19] addresses T1, Cynomolgus monkey IL-17C. Nature of the assay: MSD receptor inhibition assay, Fab format: Fab pre-incubated with biotinylated cynomolgus IL-17C, binding to coated mouse IL17RE/Fc. As for the experimental part: as §2

Where a chain is given by its changes, count along the chain named. Like-named read-outs stand apart in the source and are kept apart here.

B1: MAB#1 IgG1 (antibody, V domains shown)
VH: EVQLLESGGGLVQPGGSLRLSCAASGFTVSDYAMHWVRQAPGKGLEWVSYIGGVGEGTQYAESVKGRFTISRDNSKNTLYLQMNSLRAEDTAVYYCARGFAIRYYGFDYWGQGTLVTVSS
VL: SYELTQPPSVSVSPGQTASITCSGDKLGDKYAYWYQQKPGQSPVLVIYQDSKRPSGIPERFSGSNSGNTATLTISGTQAEDEADYYCQVFTFPLVTTVFGGGTKLTVLG
notes: Human IgG1 with lambda light chain from the Ylanthia library
Consider B1, for which the EC50 in [1] was found to be 0.257 nM; in [2], 0.019 nM; in [3], 0.387 nM. Besides, the values for the IC50 in assay [4], in assay [5] and in assay [6] were 0.055 nM, 0.044 nM and 0.059 nM, respectively. Further, the “NF-κB reporter assay (IC50)” value was found to be 0.0128 nM in assay [7], 0.0313 nM in assay [8] and 0.0476 nM in assay [9]. Moreover, the “Keratinocyte assay (IC50; DEFB4A gene expression in primary human keratinocytes stimulated with hIL-17C and TNFα)” value in [8] came out at 0.319 nM. For the same molecule, in assay [9], the “Keratinocyte assay (IC50; CSF3 gene expression in mouse primary keratinocytes)” value was found to be 0.112 nM.

B2: MAB#1 Fab (Fab, V domains shown)
VH: B1 VH
VL: B1 VL
notes: Purified monovalent Fab; also called MAB#1 (Fab format)
For the molecule B2, the figures for the Kd in assay [10], in assay [11] and in [12] were 22 nM, 3.95 nM and 28 nM, respectively. In addition, the IC50 in [13] was found to be 2.7 nM; in assay [14], 2.9 nM; in assay [15], 6 nM.

B3: MAB#2 IgG1 (antibody, V domains shown)
VH: QVQLVESGGGLVKPGGSLRLSCAASGFTFSDHYISWIRQAPGKGLEWVSYISSSGSTTYYAESVKGRFTISRDNAKNSLYLQMNSLRAEDTAVYYCARQSYYFLPYFDVWGQGTLVTVSS
VL: QSALTQPASVSGSPGQSITISCTGTSSDVGSYNLVSWYQQHPGKAPKLMIYEGSKRPSGVSNRFSGSKSGNTASLTISGLQAEDEADYYCASRGSRRVLYVFGGGTKLTVLG
notes: as for B1
In the case of B3, the values for the EC50 in [2] and in [3] were 0.016 nM and 0.323 nM, respectively. In addition, the IC50 in [4] amounted to 0.048 nM; in assay [5] it was 0.057 nM; in assay [6], 0.058 nM. Besides, the “NF-κB reporter assay (IC50)” value in [16] is 0.0129 nM; in [17] it was 0.0185 nM; in assay [18], 0.0648 nM. In assay [17], the “Keratinocyte assay (IC50; DEFB4A gene expression in primary human keratinocytes stimulated with hIL-17C and TNFα)” value is 0.28 nM. In addition, in assay [18], the “Keratinocyte assay (IC50; CSF3 gene expression in mouse primary keratinocytes)” value stood at 0.051 nM.

B4: MAB#2 Fab (Fab, V domains shown)
VH: B3 VH
VL: B3 VL
notes: Purified monovalent Fab; also called MAB#2 (Fab format)
As to B4, the IC50 in assay [19] stood at 0.05 nM; in [14] it was 0.076 nM; in assay [15], 0.15 nM. For the same molecule, the figures for the Kd in [10], in assay [11] and in assay [12] were 0.063 nM, 0.037 nM and 0.46 nM, respectively.

Values taken from patent US20190048071A1 (MorphoSys, published 2019).
